In publication doi:10.1101/2025.08.05.668721 (bioRxiv, 2025):

How the values were obtained:
[1] = target: T1, FGL-1 Fibrinogen-like domain (FD), dimer, C-terminal Avi-tag, biotinylated (human), Q08830; assay: BLI
T1 chain: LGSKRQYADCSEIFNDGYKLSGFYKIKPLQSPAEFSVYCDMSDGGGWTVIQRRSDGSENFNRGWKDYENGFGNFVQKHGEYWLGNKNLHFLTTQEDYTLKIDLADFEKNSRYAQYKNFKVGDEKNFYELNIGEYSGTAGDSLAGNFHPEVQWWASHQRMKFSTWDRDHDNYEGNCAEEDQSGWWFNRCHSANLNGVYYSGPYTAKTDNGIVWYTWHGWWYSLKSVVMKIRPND

[2] = target: T2, FGL-1 Fibrinogen-like domain (FD), monomer, C-terminal Avi-tag, biotinylated (human), Q08830; assay: BLI
T2 chain: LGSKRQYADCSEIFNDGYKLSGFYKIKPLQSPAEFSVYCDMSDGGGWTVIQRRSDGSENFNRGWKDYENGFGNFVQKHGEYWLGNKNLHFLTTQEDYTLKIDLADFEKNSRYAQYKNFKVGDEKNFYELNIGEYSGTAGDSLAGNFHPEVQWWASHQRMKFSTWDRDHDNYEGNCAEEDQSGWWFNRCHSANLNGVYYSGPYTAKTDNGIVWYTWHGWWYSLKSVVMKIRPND

[3] = target: the molecule itself; assay: SEC
[4] = target: the molecule itself; assay: crystal structure

B1: LAG-3 (soluble analyte in BLI), P18627 23-450 (receptor)
chain: LQPGAEVPVVWAQEGAPAQLPCSPTIPLQDLSLLRRAGVTWQHQPDSGPPAAAPGHPLAPGPHPAAPSSWGPRPRRYTVLSVGPGGLRSGRLPLQPRVQLDERGRQRGDFSLWLRPARRADAGEYRAAVHLRDRALSCRLRLRLGQASMTASPPGSLRASDWVILNCSFSRPDRPASVHWFRNRGQGRVPVRESPHHHLAESFLFLPQVSPMDSGPWGCILTYRDGFNVSIMYNLTVLGLEPPTPLTVYAGAGSRVGLPCRLPAGVGTRSFLTAKWTPPGGGPDLLVTGDNGDFTLRLEDVSQAQAGTYTCHIHLQEQQLNATVTLAIITVTPKSFGSPGSLGKLLCEVTPVSGQERFVWSSLDTPSQRSFSGPWLEAQEAQLLSQPWQCQLYQGERLLGAAVYFTELSSPGAQRSGRAPGALPAGHL
modifications: not checked
[1]
  Kd: 16.8 nM
[2]
  Kd: 740 nM

B2: FGL-1 Fibrinogen-like domain (FD), dimer, C-terminal Avi-tag, biotinylated (domain or fragment, human, UniProt Q08830 74-306, looked up)
chain: LGSKRQYADCSEIFNDGYKLSGFYKIKPLQSPAEFSVYCDMSDGGGWTVIQRRSDGSENFNRGWKDYENGFGNFVQKHGEYWLGNKNLHFLTTQEDYTLKIDLADFEKNSRYAQYKNFKVGDEKNFYELNIGEYSGTAGDSLAGNFHPEVQWWASHQRMKFSTWDRDHDNYEGNCAEEDQSGWWFNRCHSANLNGVYYSGPYTAKTDNGIVWYTWHGWWYSLKSVVMKIRPND
modifications: biotin on the Avi-tag (BirA)
[3]
  stoichiometry N: 2

B3: FGL-1 FD dimer (without Avi-tag) (domain or fragment, human, UniProt Q08830 74-306, looked up)
chain: LGSKRQYADCSEIFNDGYKLSGFYKIKPLQSPAEFSVYCDMSDGGGWTVIQRRSDGSENFNRGWKDYENGFGNFVQKHGEYWLGNKNLHFLTTQEDYTLKIDLADFEKNSRYAQYKNFKVGDEKNFYELNIGEYSGTAGDSLAGNFHPEVQWWASHQRMKFSTWDRDHDNYEGNCAEEDQSGWWFNRCHSANLNGVYYSGPYTAKTDNGIVWYTWHGWWYSLKSVVMKIRPND
[4]
  binding result: binds
